Results on four molecules are retold here after paper PMC10397247.

What all share (experiment): two-hybrid library CCNG1;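 also: natural log of median RNA to DNA barcode read ratio; higher means stronger binding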
For one assay, the target named is T1, P9mS.
T1 chain: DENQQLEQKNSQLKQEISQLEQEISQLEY

For the next assay, the target named is T2, P7mS.
T2 chain: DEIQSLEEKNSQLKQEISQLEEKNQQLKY

The next assay addresses T3, P6mS.
T3 chain: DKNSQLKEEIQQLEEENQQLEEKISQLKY

The target of the next assay is T4, P8mS.
T4 chain: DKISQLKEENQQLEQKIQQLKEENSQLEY

Another assay has as its target T5, 4H626-bN.
T5 chain: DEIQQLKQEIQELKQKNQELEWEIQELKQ

For a further assay, the target named is T6, 4H3858-bN.
T6 chain: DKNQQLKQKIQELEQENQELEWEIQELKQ

The next assay deals with T7, 4H850-bN.
T7 chain: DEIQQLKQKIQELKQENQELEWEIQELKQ

For a further assay, the target named is T8, 4H1710-bN.
T8 chain: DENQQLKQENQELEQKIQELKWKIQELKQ

The next assay addresses T9, 4H3277-bN.
T9 chain: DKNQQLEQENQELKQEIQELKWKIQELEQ

Another assay deals with T10, 4H3175-bN.
T10 chain: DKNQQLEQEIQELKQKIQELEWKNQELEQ

Another assay deals with T11, 4H3162-bN.
T11 chain: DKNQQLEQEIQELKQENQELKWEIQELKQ

The next assay deals with T12, 4H3926-bN.
T12 chain: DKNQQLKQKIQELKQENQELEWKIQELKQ

In the next assay the target is T13, 4H3497-bN.
T13 chain: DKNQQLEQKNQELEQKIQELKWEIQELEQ

The target of the next assay is T14, 4H918-bN.
T14 chain: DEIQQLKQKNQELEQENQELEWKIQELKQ

Another assay has as its target T15, 4H1899-bN.
T15 chain: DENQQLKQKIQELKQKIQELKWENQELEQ

For another assay, the target named is T16, 4H591-bN.
T16 chain: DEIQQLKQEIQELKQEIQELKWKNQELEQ

In a further assay the target is T17, 4H3817-bN.
T17 chain: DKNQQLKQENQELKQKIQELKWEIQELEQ

A further assay concerns the target T18, 4H3298-bN.
T18 chain: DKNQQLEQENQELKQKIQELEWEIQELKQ

The next assay concerns the target T19, 4H1985-bN.
T19 chain: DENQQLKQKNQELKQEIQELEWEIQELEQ

The next assay has as its target T20, 4H3974-bN.
T20 chain: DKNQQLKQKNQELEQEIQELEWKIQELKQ

Another assay addresses T21, 4H906-bN.
T21 chain: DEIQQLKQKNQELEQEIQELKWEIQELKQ

Another assay deals with T22, 4H3613-bN.
T22 chain: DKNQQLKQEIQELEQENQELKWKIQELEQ

For another assay, the target named is T23, 4H570-bN.
T23 chain: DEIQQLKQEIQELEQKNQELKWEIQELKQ

The target in a further assay is T24, 4H3628-bN.
T24 chain: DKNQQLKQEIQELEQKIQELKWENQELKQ

A further assay has as its target T25, 4H1544-bN.
T25 chain: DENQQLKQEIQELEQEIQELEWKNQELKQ

A further assay has as its target T26, 4H3462-bN.
T26 chain: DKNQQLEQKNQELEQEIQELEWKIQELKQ

In a further assay the target is T27, 4H3112-bN.
T27 chain: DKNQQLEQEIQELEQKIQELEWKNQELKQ

The target of the next assay is T28, 4H908-bN.
T28 chain: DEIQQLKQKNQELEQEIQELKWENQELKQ

In another assay the target is T29, 4H454-bN.
T29 chain: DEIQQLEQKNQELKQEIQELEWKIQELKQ

In another assay the target is T30, 4H568-bN.
T30 chain: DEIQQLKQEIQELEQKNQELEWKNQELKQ

The next assay has as its target T31, 4H4001-bN.
T31 chain: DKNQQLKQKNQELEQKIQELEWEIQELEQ

In the next assay the target is T32, 4H331-bN.
T32 chain: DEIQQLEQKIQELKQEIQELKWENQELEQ

The target of a further assay is T33, 4H370-bN.
T33 chain: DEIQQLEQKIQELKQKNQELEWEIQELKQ

The target of a further assay is T34, 4H949-bN.
T34 chain: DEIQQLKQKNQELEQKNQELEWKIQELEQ

The target in a further assay is T35, 4H2610-bN.
T35 chain: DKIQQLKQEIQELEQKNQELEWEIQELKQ

Another assay concerns the target T36, 4H717-bN.
T36 chain: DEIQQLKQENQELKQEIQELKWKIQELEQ

Another assay deals with T37, 4H338-bN.
T37 chain: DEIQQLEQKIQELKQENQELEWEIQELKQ

A further assay has as its target T38, 4H462-bN.
T38 chain: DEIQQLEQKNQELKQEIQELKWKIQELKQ

The target in a further assay is T39, 4H3782-bN.
T39 chain: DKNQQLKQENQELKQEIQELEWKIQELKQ

The target of a further assay is T40, 4H967-bN.
T40 chain: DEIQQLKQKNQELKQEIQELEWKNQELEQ

The next assay has as its target T41, 4H2618-bN.
T41 chain: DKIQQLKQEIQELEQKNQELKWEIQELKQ

The next assay deals with T42, 4H3427-bN.
T42 chain: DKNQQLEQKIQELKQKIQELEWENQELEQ

For the next assay, the target named is T43, 4H953-bN.
T43 chain: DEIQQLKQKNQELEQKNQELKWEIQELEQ

In another assay the target is T44, 4H3185-bN.
T44 chain: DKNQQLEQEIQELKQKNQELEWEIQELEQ

The target in the next assay is T45, 4H2667-bN.
T45 chain: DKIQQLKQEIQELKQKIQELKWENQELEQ

The next assay deals with T46, 4H797-bN.
T46 chain: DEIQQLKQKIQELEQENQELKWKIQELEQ

The target of the next assay is T47, 4H3843-bN.
T47 chain: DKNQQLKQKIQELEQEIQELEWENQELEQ

The target of the next assay is T48, 4H3189-bN.
T48 chain: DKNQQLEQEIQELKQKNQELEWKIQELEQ

In the next assay the target is T49, 4H72-bN.
T49 chain: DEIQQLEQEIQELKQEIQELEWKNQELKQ

A further assay has as its target T50, 4H2697-bN.
T50 chain: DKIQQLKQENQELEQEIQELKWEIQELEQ

Another assay deals with T51, 4H3354-bN.
T51 chain: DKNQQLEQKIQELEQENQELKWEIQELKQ

The next assay deals with T52, 4H687-bN.
T52 chain: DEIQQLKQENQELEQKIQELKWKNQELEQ

Another assay addresses T53, 4H607-bN.
T53 chain: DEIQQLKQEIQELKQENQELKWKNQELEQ

The target in another assay is T54, 4H3855-bN.
T54 chain: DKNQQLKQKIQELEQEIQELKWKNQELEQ

The next assay addresses T55, 4H2729-bN.
T55 chain: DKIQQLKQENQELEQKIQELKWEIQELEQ

Another assay has as its target T56, 4H3606-bN.
T56 chain: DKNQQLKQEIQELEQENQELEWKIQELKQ

The target in a further assay is T57, 4H754-bN.
T57 chain: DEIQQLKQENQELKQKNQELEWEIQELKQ

Another assay concerns the target T58, 4H883-bN.
T58 chain: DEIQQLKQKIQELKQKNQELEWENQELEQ

In another assay the target is T59, 4H2576-bN.
T59 chain: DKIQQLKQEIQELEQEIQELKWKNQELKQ

A further assay has as its target T60, 4H883-bA.
T60 chain: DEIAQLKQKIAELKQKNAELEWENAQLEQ

As to DKNSQLKEEIQQLEEENQQLEEKISQLKY [P6mS], the interaction score with P9mS is -0.654; with P7mS, -2.21; with P6mS it was -0.275; with P8mS it was -0.784.

Consider DENQQLKQEIQELEQEIQELEWKNQELKQ [4H1544-bN], for which the interaction score in the assay with 4H626-bN is -1.03; with 4H3858-bN it was -0.293; with 4H850-bN it was 0.669; with 4H1710-bN, 1.41; with 4H3277-bN, -0.11; in the assay with 4H3175-bN, 0.167. The interaction score with 4H3162-bN was -1.96; with 4H3926-bN, -0.652; with 4H3497-bN, 0.211; with 4H918-bN it was -0.127; in the assay with 4H1899-bN it was 1.82; with 4H591-bN, -0.583. The interaction score in the assay with 4H3817-bN was -0.351; with 4H3298-bN it was -0.192; with 4H1985-bN it was -0.277; with 4H3974-bN, -0.0151; in the assay with 4H906-bN it was -0.343; with 4H3613-bN, -1.07. The interaction score was -0.108 in the assay with 4H570-bN, 0.019 with 4H3628-bN, -2.02 in the assay with 4H1544-bN and 1.08 with 4H3462-bN.

Consider DKIQQLKQEIQELEQEIQELKWKNQELKQ [4H2576-bN], for which the interaction score with 4H3112-bN was -0.405; in the assay with 4H908-bN, -0.577; with 4H454-bN it was -0.887; with 4H568-bN it was -0.0699; in the assay with 4H4001-bN, 0.0889; in the assay with 4H331-bN, 1.55. Besides, the interaction score is 0.65 in the assay with 4H370-bN; 0.288 in the assay with 4H949-bN; -0.395 in the assay with 4H2610-bN; -0.909 in the assay with 4H717-bN; 0.787 with 4H338-bN; -1.21 with 4H918-bN. Also, the interaction score with 4H462-bN is 0.0924; in the assay with 4H3782-bN, -0.233; in the assay with 4H967-bN it was -1.08; with 4H2618-bN it was 0.876; with 4H3427-bN it was -2.5; with 4H953-bN, -1.09. The interaction score with 4H3185-bN was 0.148; with 4H2667-bN, 1.21; with 4H797-bN, -2.07; in the assay with 4H3843-bN, -0.264; in the assay with 4H3189-bN it was 0.118; with 4H72-bN it was 1.58. The interaction score with 4H2697-bN is -0.235; in the assay with 4H3354-bN it was -1.26; with 4H687-bN, -0.515; with 4H607-bN, -0.239; in the assay with 4H3855-bN, 1.04; with 4H2729-bN, 1.74. For the same molecule, the interaction score in the assay with 4H3606-bN was -0.101; with 4H754-bN, 0.456; with 4H883-bN it was 1.47; with 4H2576-bN, 1.12.

Turning to DKIQQLKQEIQELEQKNQELEWEIQELKQ [4H2610-bN], the interaction score in the assay with 4H568-bN is -0.762; with 4H4001-bN, -0.736; with 4H331-bN, 0.616; with 4H370-bN, -2.72; with 4H2610-bN, 0.245; with 4H883-bA it was 0.288. In addition, the interaction score is -0.666 with 4H918-bN; 1.63 in the assay with 4H462-bN; -1.11 with 4H3782-bN; -0.795 in the assay with 4H967-bN; -0.363 in the assay with 4H953-bN; 0.011 with 4H2667-bN. Further, the interaction score was -1.16 with 4H797-bN; 0.0276 with 4H3843-bN; -0.821 in the assay with 4H3189-bN; -1.85 with 4H72-bN; -0.363 in the assay with 4H2697-bN; -1.82 with 4H687-bN. Also, the interaction score in the assay with 4H607-bN is -0.966; in the assay with 4H3606-bN, -1.38; with 4H883-bN, -0.137.
